Measurements: publication PMC8759039, “EjRAV1/2 Delay Flowering Through Transcriptional Repression of EjFTs and EjSOC1s in Loquat”

What was measured:
EjRAV2 = EjRAV2 (Eriobotrya japonica, UniProt A0A482LTM5 1-406); test: EMSA; Beyotime EMSA/Gel Shift kit, chemiluminescent biotin detection; buffer, salt, pH and temperature not stated; settings: protein: recombinant; tags: 6xHis (pET28a); label: biotin (ends); blunt
EjRAV1 [1] = target: T1, EjRAV1 (Eriobotrya japonica, UniProt A0A482LZ61 1-403); test: as above; settings: protein: recombinant; tags: 6xHis (pET28a); label: biotin (ends); blunt
EjRAV1 [2] = target: T1, EjRAV1; test: competition; excess unlabeled vs biotin P1; Beyotime EMSA/Gel Shift kit, chemiluminescent biotin detection; buffer, salt, pH and temperature not stated; settings: protein: recombinant; tags: 6xHis (pET28a); blunt

T1 sequence (A0A482LZ61 entry or part of it): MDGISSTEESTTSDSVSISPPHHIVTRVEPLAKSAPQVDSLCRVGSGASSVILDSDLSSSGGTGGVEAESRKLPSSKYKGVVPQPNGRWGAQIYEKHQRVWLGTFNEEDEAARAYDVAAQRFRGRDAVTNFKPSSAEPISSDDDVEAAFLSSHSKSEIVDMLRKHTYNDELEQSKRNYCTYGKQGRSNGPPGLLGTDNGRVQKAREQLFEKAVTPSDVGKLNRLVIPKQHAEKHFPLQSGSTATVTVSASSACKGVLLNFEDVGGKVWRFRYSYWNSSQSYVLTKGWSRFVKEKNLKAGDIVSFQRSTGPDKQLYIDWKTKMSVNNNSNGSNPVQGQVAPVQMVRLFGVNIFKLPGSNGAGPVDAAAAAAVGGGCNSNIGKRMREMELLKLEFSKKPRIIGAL
Chain of EjRAV2 (A0A482LTM5 entry or part of it): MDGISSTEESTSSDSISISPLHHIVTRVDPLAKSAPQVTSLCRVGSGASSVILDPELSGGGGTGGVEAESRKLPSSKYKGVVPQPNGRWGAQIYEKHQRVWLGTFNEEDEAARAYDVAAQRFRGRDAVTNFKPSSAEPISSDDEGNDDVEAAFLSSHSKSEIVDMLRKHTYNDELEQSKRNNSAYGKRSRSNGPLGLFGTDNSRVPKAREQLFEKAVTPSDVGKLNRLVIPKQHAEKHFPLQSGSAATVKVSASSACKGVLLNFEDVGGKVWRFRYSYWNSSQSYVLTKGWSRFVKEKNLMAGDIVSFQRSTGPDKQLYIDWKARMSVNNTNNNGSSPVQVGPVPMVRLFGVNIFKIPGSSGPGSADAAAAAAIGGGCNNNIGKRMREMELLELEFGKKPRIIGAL

B1: EjFT1-P1 (dsDNA)
DNA 1: TGGCAATATGACATGCAATGCAACAGAATATAAATAGTTGATTTTG
DNA 2: CAAAATCAACTATTTATATTCTGTTGCATTGCATGTCATATTGCCA
binding result (EjRAV2): no binding | binding result (EjRAV1 [1]): binds

B2: EjFT1-P1 unlabeled (dsDNA)
DNA 1: TGGCAATATGACATGCAATGCAACAGAATATAAATAGTTGATTTTG
DNA 2: CAAAATCAACTATTTATATTCTGTTGCATTGCATGTCATATTGCCA
binding result (EjRAV1 [2]): binds
